Results as given in US20220363752A1 (VERSEAU THERAPEUTICS, published 2022).
Numbering of substitutions follows the chain as printed. Primed or numbered codes have the meaning given here. Biotin′ = not defined here

Assays:
[1] = target: T1, LRRC25(111-130) biotin peptide (human, not fully specified; N-terminal acetyl; C-terminal GGK-Biotin; native Cys changed to Ser); assay: peptide ELISA
T1 peptide: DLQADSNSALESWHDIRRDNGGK
Experimental: (§1) To establish if functional chimera anti-LRRC25 antibodies recognize particular regions of LRRC25, ELISA experiments were performed using 10 plate-immobilized 16- to 20-mer overlapping LRRC25(ECD) biotin peptides (Table 7). Biotinylated human LRRC25-His served as a positive control. A typical ELISA was performed by coating overnight at 4° C., 3 ug/mL/25 ul per well of streptavidin (Jackson Immunoresearch, Cat. #016-030-084) in PBS in half-area high binding microtiter wells (Corning Cat. #3690). […] Biotin peptides or biotinylated human LRRC25-His protein were added in duplicate (2 ug/mL/25 ul per well) in assay buffer (blocking buffer containing 0.05% tween 20) and the plate incubated for 45 min at 37° C. The plate was washed as before, 20 nM anti-LRRC25 antibodies in assay buffer added in duplicate into appropriate wells, and the plate incubated as before. The plate was washed and HRP-conjugated secondary antibody in assay buffer added [25 ul per well; goat anti-human IgG (Jackson Immunoresearch, Cat. #715-035-150)], and incubated as before. Antibody bound to plate-immobilized peptide(s) or protein was determined at A450 nm using HRP substrate (3,3′,5,5′-tetramethylbenzidine (TMB); eBioscience; Cat. #00-4201-56); 100 μl/well).

[2] = target: T2, LRRC25(81-100) biotin peptide (human, not fully specified; N-terminal acetyl; C-terminal GGK-Biotin); assay: peptide ELISA
T2 peptide: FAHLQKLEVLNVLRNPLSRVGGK
Experimental: as §1

[3] = target: T3, LRRC25(141-159) biotin peptide (human, not fully specified; N-terminal acetyl; C-terminal GGK-Biotin; native Cys changed to Ser); assay: peptide ELISA
T3 peptide: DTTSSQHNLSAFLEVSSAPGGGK
Experimental: as §1

[4] = target: T4, LRRC25(51-69) biotin peptide (human, not fully specified; N-terminal acetyl; C-terminal GGK-Biotin); assay: peptide ELISA
T4 peptide: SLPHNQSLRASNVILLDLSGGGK
Experimental: as §1

[5] = target: T5, LRRC25(21-40) biotin peptide (human, not fully specified; N-terminal NH2; C-terminal GGK-Biotin; native Cys changed to Ser); assay: peptide ELISA
T5 peptide: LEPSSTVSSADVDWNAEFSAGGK
Experimental: as §1

[6] = target: T6, LRRC25(150-165) biotin peptide (human); assay: peptide ELISA
T6 peptide: Ac-SAFLEVSSAPGLASATGG-{Biotin′}
Experimental: as §1

[7] = target: T7, LRRC25(66-85) biotin peptide (human, not fully specified; N-terminal acetyl; C-terminal GGK-Biotin); assay: peptide ELISA
T7 peptide: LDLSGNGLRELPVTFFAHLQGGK
Experimental: as §1

[8] = target: T8, LRRC25(126-145) biotin peptide (human, not fully specified; N-terminal acetyl; C-terminal GGK-Biotin; native Cys changed to Ser); assay: peptide ELISA
T8 peptide: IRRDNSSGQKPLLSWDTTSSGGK
Experimental: as §1

[9] = target: T9, LRRC25(36-55) biotin peptide (human, not fully specified; N-terminal NH2; C-terminal GGK-Biotin; native Cys changed to Ser); assay: peptide ELISA
T9 peptide: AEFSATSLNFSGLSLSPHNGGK
Experimental: as §1

[10] = target: T10, His-tagged human LRRC25 extracellular domain protein, human LRRC25-His (human, UniProt Q8N386 21-165); assay: ELISA, plate-immobilized antigen
T10 construct: The entry holds the extracellular domain, a GSG linker and the His tag; also called LRRC25(ECD)-HIS
Experimental: To establish the relative binding strengths of anti-LRRC25 antibodies against human LRRC25, and their cross-reactivity with cynomolgus monkey LRRC25, antibody binding curve analyses were performed and EC50 values against plate-immobilized recombinant human and cyno LRRC25 proteins were determined.
(§2) A typical ELISA was performed by coating overnight in PBS, pH 7.4, at 4° C. in high binding microtiter wells with 1 ug/mL/100 ul per well of human LRRC25-His or cyno LRRC25-His. An anti-human LRRC25 antibody (2A3, LS Bio, LS-C174039-100) and anti-HIS-HRP (Miltenyi Biotec; 130-092-783) served as coating controls for the human and cyno LRRC25 proteins, respectively. […] Anti-LRRC25 antibodies were added (100 ul per well) at 500 nM and serially diluted 3-fold in assay buffer (1% skimmed milk in PBS, pH 7.4). The plate was incubated with gentle agitation for 1 h at room temperature. The plate was washed 3× and HRP-conjugated secondary antibody in assay buffer added [100 ul per well; goat anti-human IgG (Jackson Immunoresearch, cat #715-035-150)], and the plate was incubated as before. Antibody bound to plate-immobilized LRRC25(ECD)-HIS was determined at A450 nm using HRP substrate (3,3′,5,5′-tetramethylbenzidine (TMB); eBioscience; 00-4201-56); 100 μl/well).

[11] = target: T11, LRRC25(96-115) biotin peptide (human, not fully specified; N-terminal acetyl; C-terminal GGK-Biotin; native Cys changed to Ser); assay: ELISA, 20 nM antibody, biotinylated antigen on streptavidin plate
T11 construct: also called Biotin LRRC25 (96-115) peptide
T11 peptide: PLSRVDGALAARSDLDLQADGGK
Experimental: as §1

[12] = target: T12, biotinylated human LRRC25-His protein (human, UniProt Q8N386 21-165, biotinylated (sites not given)); assay: as above
T12 construct: also called Biotin LRRC25-His; biotinylated LRRC25 protein
Experimental: as §1

[13] = target: T13, His-tagged cynomolgus monkey LRRC25 extracellular domain protein, cyno LRRC25-His (cynomolgus monkey); assay: ELISA, plate-immobilized cyno LRRC25-His
T13 construct: The entry holds the extracellular domain, a GSG linker and the His tag
Experimental: as §2

[14] = target: T11, LRRC25(96-115) biotin peptide; assay: peptide ELISA
Experimental: as §1

T13 sequence (chain, as listed by the source limits assumed): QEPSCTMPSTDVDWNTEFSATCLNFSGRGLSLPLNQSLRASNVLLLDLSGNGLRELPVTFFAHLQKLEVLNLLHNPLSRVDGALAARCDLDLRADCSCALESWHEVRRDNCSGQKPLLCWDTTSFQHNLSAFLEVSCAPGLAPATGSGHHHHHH
T10 sequence (Q8N386 other isoform, or with tags, fused parts or gaps): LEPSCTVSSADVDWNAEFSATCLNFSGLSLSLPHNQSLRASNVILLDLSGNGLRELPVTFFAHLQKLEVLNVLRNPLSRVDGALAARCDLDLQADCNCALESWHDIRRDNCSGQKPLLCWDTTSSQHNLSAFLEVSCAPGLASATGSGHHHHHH
T12 sequence (Q8N386 other isoform, or with tags, fused parts or gaps): as above

B1: anti-LRRC25 chimeric antibody 1H09 (antibody, human IgG4, V domains shown)
VH: DVQLVESGGGLVKPGGSLKLSCAASGFTFSSYAMSWVRQTPEKRLEWVASISRGGNTYYPDSVKGRFTISRDNARNILYLQMSSLRSEDTAMYYCARGNYGNSPFAYWGQGALVTVSA
VL: DVVMTQTPASLAVSLGQRATISCRASESVDSYGNSFMHWYQQKPGQPPKLLIYLASNLESGVPARFSGSGSRTDFTLTIDPVEADDAATYYCQQNNEDPFTFGSGTKLEIKR
binding result [1]: no binding (tested: 20 nM) | binding result [2]: no binding (tested: 20 nM) | binding result [3]: no binding (tested: 20 nM) | binding result [4]: no binding (tested: 20 nM) | binding result [5]: no binding (tested: 20 nM) | binding result [6]: no binding (tested: 20 nM) | binding result [7]: no binding (tested: 20 nM) | binding result [8]: no binding (tested: 20 nM) | binding result [9]: no binding (tested: 20 nM) | EC50 [10]: 1.5 nM | absorbance (A450) [11]: 0.631 A450 | absorbance (A450) [12]: 0.564 A450 | binding result [13]: no binding (tested: 500 nM)

B2: anti-LRRC25 chimeric antibody 1F01 (antibody, human IgG4, V domains shown)
VH: B1 VH with D1E, Q3K, V5E, S31N, M92T, Y94F, A96T, R97K, N102S, A112T
VL: DIQMTQSPASLSASVGETVTITCRASENIYSYLAWYQQKQGKSPQLLVYNAKTLAEGVPSRFSGSGSGTQFSLKINSLQPEDFGSYYCQHHYGTPFTFGSGTKLEIKR
notes: also called ATCC PTA-126025
binding result [1]: no binding (tested: 20 nM) | binding result [2]: no binding (tested: 20 nM) | binding result [3]: no binding (tested: 20 nM) | binding result [4]: no binding (tested: 20 nM) | binding result [5]: no binding (tested: 20 nM) | binding result [6]: no binding (tested: 20 nM) | binding result [7]: no binding (tested: 20 nM) | binding result [8]: no binding (tested: 20 nM) | binding result [9]: no binding (tested: 20 nM) | EC50 [10]: 8.3 nM | absorbance (A450) [11]: 0.782 A450 | absorbance (A450) [12]: 0.507 A450 | binding result [13]: no binding (tested: 500 nM)

B3: anti-LRRC25 chimeric antibody 1H04 (antibody, human IgG4, V domains shown)
VH: EVQLVESGGGLVKPGGSLKLSCAASGFTFSNSAMSWVRQTPEKRLEWVASISRGGKTYYPDSVKGRFTISRDNARNILYLQMSSLRSEDTAMYYCARGQELRLFAYWGQGTLVTVSA
VL: DIVMTQDAFSNPVTLGTSASISCRSSKSLLHSNGITYLYWYLQKPGQSPQLLIYQMSNLASGVPDRFSSSGSGTDFTLRISRVEAEDVGVYYCAQNLELPFTFGSGTKLEIKR
binding result [1]: no binding (tested: 20 nM) | binding result [2]: no binding (tested: 20 nM) | binding result [3]: no binding (tested: 20 nM) | binding result [4]: no binding (tested: 20 nM) | binding result [5]: no binding (tested: 20 nM) | binding result [6]: no binding (tested: 20 nM) | binding result [7]: no binding (tested: 20 nM) | binding result [8]: no binding (tested: 20 nM) | binding result [9]: no binding (tested: 20 nM) | EC50 [10]: 0.44 nM | absorbance (A450) [11]: 2.58 A450 | absorbance (A450) [12]: 1.24 A450 | binding result [13]: no binding (tested: 500 nM)

B4: anti-LRRC25 chimeric antibody 3F06 (antibody, human IgG4, V domains shown)
VH: DVMLVESGGGLVKPGGSLKLSCAASGFTFSSYAMSWVRQTPDKRLEWVASISSSGNTYYPDTMKGRFTISRDNARNILYLQMSSLRSEDTAMYYCARGLTGTLFAYWGQGTLVTVSA
VL: B3 VL with F9P, N11V, L15P, T17E, A19V, Y37F, Y41F, K112G
binding result [1]: no binding (tested: 20 nM) | binding result [2]: no binding (tested: 20 nM) | binding result [3]: no binding (tested: 20 nM) | binding result [4]: no binding (tested: 20 nM) | binding result [5]: no binding (tested: 20 nM) | binding result [6]: no binding (tested: 20 nM) | binding result [7]: no binding (tested: 20 nM) | binding result [8]: no binding (tested: 20 nM) | binding result [9]: no binding (tested: 20 nM) | EC50 [10]: 1.9 nM | absorbance (A450) [11]: 2.8 A450 | absorbance (A450) [12]: 1.23 A450 | binding result [13]: no binding (tested: 500 nM)

B5: anti-LRRC25 chimeric antibody 1A03 (antibody, human IgG4, V domains shown)
VH: B3 VH with N31S, M34V, K56N
VL: B3 VL with D7A, F101P, S105G
binding result [1]: no binding (tested: 20 nM) | binding result [2]: no binding (tested: 20 nM) | binding result [3]: no binding (tested: 20 nM) | binding result [4]: no binding (tested: 20 nM) | binding result [5]: no binding (tested: 20 nM) | binding result [6]: no binding (tested: 20 nM) | binding result [7]: no binding (tested: 20 nM) | binding result [8]: no binding (tested: 20 nM) | binding result [9]: no binding (tested: 20 nM) | EC50 [10]: 6.4 nM | absorbance (A450) [11]: 0.478 A450 | absorbance (A450) [12]: 0.37 A450 | binding result [13]: no binding (tested: 500 nM)

B6: anti-LRRC25 chimeric antibody 2G02 (antibody, human IgG4, V domains shown)
VH: QVTLKESGPGILQPSQTLSLTCSFSGFSLSTSGMGVSWIRQPSGKGLEWLAHIYWDDDKRYNPSLKSRLTISKDTSSNQVFLKITSVDTADTATYYCARRHRDYDSRGHWYFGVWGAGTTVTVSS
VL: DVVMTQTPKSMSMSVGERVTLSCKASENVGTYVSWYQQKPEQSPKLLIYGASNRYTGVPDRFTGSGSATDFTLTISSVQAEDLADYHCGQSYNYPFTFGGGTKLEIKR
binding result [1]: no binding (tested: 20 nM) | binding result [2]: no binding (tested: 20 nM) | binding result [3]: no binding (tested: 20 nM) | binding result [14]: no binding (tested: 20 nM) | binding result [4]: no binding (tested: 20 nM) | binding result [5]: no binding (tested: 20 nM) | binding result [6]: no binding (tested: 20 nM) | binding result [7]: no binding (tested: 20 nM) | binding result [8]: no binding (tested: 20 nM) | binding result [9]: no binding (tested: 20 nM) | absorbance (A450) [11]: 0.049 A450 | absorbance (A450) [12]: 2.6 A450
